Assay results reported in the Human Domainome abundance scans (Beltran et al. 2025).
± gives the uncertainty stated by the source.

B1: POU domain, class 6, transcription factor 2, residues 609 to 663; numbered along this chain, P78424 (parent)
chain: KRRTSFTPQALEILNAHFEKNTHPSGQEMTEIAEKLNYDREVVRVWFCNKRQALK

Variants of: B1
Assay: abundance fitness (aPCA) (normalised: wild type 0, dead -1); higher = more abundant; growth selection in yeast, the domain comes from the species named
Conditions: Homo sapiens
With KRRTSFTPQALEILNAHFEKNTHPSGQEMTEIAEKLNYDREVVRIWFCNKRQALK the abundance fitness was -0.068 ± 0.13.
With KRRTSFTPQALEILNAHFEKNTHPSGQEMTEIAEKLNYDREVVRKWFCNKRQALK the abundance fitness was -0.149 ± 0.15.
Work on KRATSFTPQALEILNAHFEKNTHPSGQEMTEIAEKLNYDREVVRVWFCNKRQALK yielded an abundance fitness of -0.136 ± 0.076.
Work on KRSTSFTPQALEILNAHFEKNTHPSGQEMTEIAEKLNYDREVVRVWFCNKRQALK yielded an abundance fitness of 0.02 ± 0.078.
KRVTSFTPQALEILNAHFEKNTHPSGQEMTEIAEKLNYDREVVRVWFCNKRQALK gave an abundance fitness of -0.001 ± 0.071.
For KIRTSFTPQALEILNAHFEKNTHPSGQEMTEIAEKLNYDREVVRVWFCNKRQALK, the abundance fitness was -0.059 ± 0.12.
For KRRTSFTPQALEILNAHFEKNTHPCGQEMTEIAEKLNYDREVVRVWFCNKRQALK, the abundance fitness was -0.232 ± 0.16.
With KRRTSFTPQALEILNAHFEKNTHPAGQEMTEIAEKLNYDREVVRVWFCNKRQALK the abundance fitness was -0.185 ± 0.12.
KRRTSFTPQALEILNAHFEKNTHPYGQEMTEIAEKLNYDREVVRVWFCNKRQALK gave an abundance fitness of -0.872 ± 0.24.
For KRRTSFTPQALEILNAHFEKNTHPSGQEMTEIAEKLNYDSEVVRVWFCNKRQALK, the abundance fitness was -0.034 ± 0.069.
Variant KRRTSFTPQALEILNAHFEKNTHPSGQEMTEIAEKLNYDPEVVRVWFCNKRQALK has an abundance fitness of -0.003 ± 0.13.
KRRTSFTPQALEILNAHFEKNTHPSGQEMTEIAEKLNYDVEVVRVWFCNKRQALK gave an abundance fitness of -0.013 ± 0.073.
With KRRTSMTPQALEILNAHFEKNTHPSGQEMTEIAEKLNYDREVVRVWFCNKRQALK the abundance fitness was -0.042 ± 0.12.
Work on KRRTSCTPQALEILNAHFEKNTHPSGQEMTEIAEKLNYDREVVRVWFCNKRQALK yielded an abundance fitness of -0.15 ± 0.09.
For KRRTSHTPQALEILNAHFEKNTHPSGQEMTEIAEKLNYDREVVRVWFCNKRQALK, the abundance fitness was -0.272 ± 0.15.
KRRTSFTPQALMILNAHFEKNTHPSGQEMTEIAEKLNYDREVVRVWFCNKRQALK gave an abundance fitness of -0.222 ± 0.19.
Work on KRRTSFTPQALLILNAHFEKNTHPSGQEMTEIAEKLNYDREVVRVWFCNKRQALK yielded an abundance fitness of -0.403 ± 0.11.
With KRRTSFTPQALEILNAHFEKNTHPSGQEMTEIAEKLNYDREVVRVWFCNKRQALR the abundance fitness was 0.001 ± 0.31.
For KRRTSFTPQALEILNAHFEKNTHPSGQEMTEIAEKLNYDREVVRVWFCNKRQALV, the abundance fitness was -0.304 ± 0.5.
Variant KRRTSFTPQALEILNAHFEKNTHPSGDEMTEIAEKLNYDREVVRVWFCNKRQALK has an abundance fitness of 0.25 ± 0.15.
For KRRTSFTPQALEILNAHFEKNTHPSGKEMTEIAEKLNYDREVVRVWFCNKRQALK, the abundance fitness was 0.131 ± 0.15.
With KRRTSFTPQALEILNAHFEKNTHPSGIEMTEIAEKLNYDREVVRVWFCNKRQALK the abundance fitness was 0.091 ± 0.16.
Work on KRRTSFTPQALEILPAHFEKNTHPSGQEMTEIAEKLNYDREVVRVWFCNKRQALK yielded an abundance fitness of -0.378 ± 0.23.
KRRTSFTPQALEILTAHFEKNTHPSGQEMTEIAEKLNYDREVVRVWFCNKRQALK showed an abundance fitness of -0.217 ± 0.13.
KRRTSFTPQALEILHAHFEKNTHPSGQEMTEIAEKLNYDREVVRVWFCNKRQALK showed an abundance fitness of -0.085 ± 0.16.
With KRRTSFTPQALEILRAHFEKNTHPSGQEMTEIAEKLNYDREVVRVWFCNKRQALK the abundance fitness was -0.217 ± 0.084.
In the case of KRRTSFTPQALEILNAHFEKNTHPSGQEMTEIAEKLNNDREVVRVWFCNKRQALK, the abundance fitness is reported as -0.405 ± 0.17.
Variant KRRTSFTPQALEILNAHFEKNTHPSGQEMTEIAEKLNKDREVVRVWFCNKRQALK has an abundance fitness of -0.133 ± 0.095.
With KRRTSFTPQALEILNAHFEKNTHPSMQEMTEIAEKLNYDREVVRVWFCNKRQALK the abundance fitness was -0.078 ± 0.15.
Work on KRRTSFTPQALEILNAHFEKNTHPSGQEMTEIAEKLNYDREVVRVWFCNFRQALK yielded an abundance fitness of -1.15 ± 0.31.
KRRTSFTPQALEILNAHFEKNTHPSGQEMTEIAEKLNYDREVVRVWFCNWRQALK gave an abundance fitness of -0.836 ± 0.15.
In the case of KRRTSFTPQALEILNAHFEKNTHPSGQEMTEIAEKLNYDREVVRVWFCNMRQALK, the abundance fitness is reported as -0.184 ± 0.17.
Variant KRRTSFTPQALEILNAHFEKNTHPSGQEMTEIAEKLNYDREVVRVWFCNLRQALK has an abundance fitness of -0.834 ± 0.11.
With KRRTSFTRQALEILNAHFEKNTHPSGQEMTEIAEKLNYDREVVRVWFCNKRQALK the abundance fitness was -0.148 ± 0.1.
In the case of KRRTSFTDQALEILNAHFEKNTHPSGQEMTEIAEKLNYDREVVRVWFCNKRQALK, the abundance fitness is reported as 0.038 ± 0.14.
In the case of KRRTSFTAQALEILNAHFEKNTHPSGQEMTEIAEKLNYDREVVRVWFCNKRQALK, the abundance fitness is reported as 0.022 ± 0.12.
KRRTSFTPQALEILNAHFEKNTHPSGQEMTEIAEKLNYDREVVRVWFCNKTQALK showed an abundance fitness of -0.243 ± 0.16.
Work on KRRTSFTPQALEILNAHFEKNTHPSGQEMTEIAEKLNYDREVPRVWFCNKRQALK yielded an abundance fitness of -0.938 ± 0.22.
Variant KRRTSFTPQALEILNAHFEKNTHPSGQEMTEIAEKLNYDREVDRVWFCNKRQALK has an abundance fitness of -0.764 ± 0.31.
Work on KRRTSFTPQALEILNAHFEKNTHPSGQEMTEIAEKLNYDREVERVWFCNKRQALK yielded an abundance fitness of -0.762 ± 0.15.
Variant KRRTSFTPQALEILNAHFEKNTHPSGQEMTEIAEKLNYDREVLRVWFCNKRQALK has an abundance fitness of -0.201 ± 0.096.
GRRTSFTPQALEILNAHFEKNTHPSGQEMTEIAEKLNYDREVVRVWFCNKRQALK showed an abundance fitness of 0.157 ± 0.18.
Work on KRRTSFTPQALEILNAHFEKNTHPSGQEMTEIAEKLFYDREVVRVWFCNKRQALK yielded an abundance fitness of -0.353 ± 0.13.
KRRTSFTPQALEILNAHFEKNTHPSGQEMTEIAEKLNYDREEVRVWFCNKRQALK showed an abundance fitness of 0.004 ± 0.073.
Work on KRRTSFTPQALEILNAHSEKNTHPSGQEMTEIAEKLNYDREVVRVWFCNKRQALK yielded an abundance fitness of -0.593 ± 0.091.
KRRTSFTPQALEILNAHPEKNTHPSGQEMTEIAEKLNYDREVVRVWFCNKRQALK showed an abundance fitness of -1.07 ± 0.32.
For KRRTSFTPQALEILNAHFEKNTHPSGQIMTEIAEKLNYDREVVRVWFCNKRQALK, the abundance fitness was -0.02 ± 0.2.
For KRRTSFTPQALEILNAHFEKNTHPSGQTMTEIAEKLNYDREVVRVWFCNKRQALK, the abundance fitness was -0.088 ± 0.14.
